Patent publication US20240092836A1
Bridges are numbered along the chain shown (N, C = ends). Primed or numbered codes have the meaning given here. Where no end group is shown, it is not given here. The star is where a group is joined. Biotin = O=C1N[C@H]2[C@H](CS[C@H]2CCCCC(=O)*)N1; PEG4 = NCCOCCOCCOCCOCCC(=O)O; PEG4′ = not defined here

Assays:
[1] = biological target: Recombinant Human CTLA4-Fc chimera (R&D systems) (human) (UniProt P16410); test: ELISA EC50, purified MBP fusions
[2] = biological target: Recombinant Human CTLA4-Fc chimera (R&D systems) (human) (UniProt P16410); test: ELISA, purified MBP fusion on immobilised CTLA-4
[3] = biological target: Recombinant Human CTLA4-Fc chimera (R&D systems) (human) (UniProt P16410); test: BLItz (BLI), biotinylated CTLA-4 on SA chip, MBP fusion as analyte
[4] = biological target: Recombinant Human CTLA4-Fc chimera (R&D systems) (human) (UniProt P16410); test: BLItz (BLI), biotinylated peptide on SA chip, CTLA-4 protein as analyte
[5] = biological target: Recombinant Human CTLA4-Fc chimera (R&D systems) (human) (UniProt P16410); test: BLItz (BLI), synthetic biotinylated peptides
[6] = biological target: Recombinant Human CTLA4-Fc chimera (R&D systems) (human) (UniProt P16410); test: ELISA, signal over SA

Binder	EC50 [2] [µM]	ELISA S/N(SA) [6]	also measured
GGCLHPFLPIVSHHFCGR (peptide, not shown: large carriers; small tags and cut ends) [C4-302mat-3-100-44]	0.082		fold improvement of affinity over the original clone [1]: 50 fold
GGCMHPFLPVVSRHFCGR (peptide, not shown: large carriers; small tags and cut ends) [C4-302mat-3-1-12]	0.085		fold improvement of affinity over the original clone [1]: 50 fold
GGCMHPFLLVVSHHFCGG (peptide, not shown: large carriers; small tags and cut ends) [H12SSI-Ctla4-3-02 (MBP fusion)]	3.92		Kd [3]: 3.88 µM; koff [3]: 0.0123 s⁻¹; kon [3]: 3180 M⁻¹ s⁻¹
GGCMHPFLPIASLHFCGR (peptide, not shown: large carriers; small tags and cut ends) [C4-302mat-3-1-23]	0.16		
GGCMHPFLPVVSHHFCGA (peptide, not shown: large carriers; small tags and cut ends) [C4-302mat-3-1-48]	0.187		
GGCMHPFLPIVSHHFCGS (peptide, not shown: large carriers; small tags and cut ends) [C4-302mat-2-100-27]	0.189		
GGCMHPYLPVISHHFCGR (peptide, not shown: large carriers; small tags and cut ends) [C4-302mat-3-100-12]	0.217		
GGCMHPFLPVASHHFCGR (peptide, not shown: large carriers; small tags and cut ends) [C4-302mat-3-1-22]	0.222		
GGCMHPFLPVVSHHFCGR (peptide, not shown: large carriers; small tags and cut ends) [C4-302mat-3-100-37]	0.225		
GGCMHPFLPVASHHFCGG (peptide, not shown: large carriers; small tags and cut ends) [C4-302mat-1-1-35]	0.288		
GGCRHPFLPIVSRHFCRG (peptide, not shown: large carriers; small tags and cut ends) [C4-302mat-3-1-45]	0.3		
GGCMHPFLPILSHHFCAG (peptide, not shown: large carriers; small tags and cut ends) [C4-302mat-3-1-32]	0.322		
GSCMHPFLPVASRHFCGR (peptide, not shown: large carriers; small tags and cut ends) [C4-302mat-3-1-31]	0.342		
GGCMHPFLPVASHHFCAG (peptide, not shown: large carriers; small tags and cut ends) [C4-302mat-3-100-27]	0.352		
GGCMHPFLPVVSHHFCRG (peptide, not shown: large carriers; small tags and cut ends) [C4-302mat-2-100-18]	0.369		
GGCLHPFLPVVSHHFCGD (peptide, not shown: large carriers; small tags and cut ends) [C4-302mat-2-1-2]	0.474		
GGCMHPFLQTVSHHFCGG (peptide, not shown: large carriers; small tags and cut ends) [C4-302mat-3-1-35]	0.668		
GGCMHPFLPVVSRHFCGG (peptide, not shown: large carriers; small tags and cut ends) [C4-302mat-3-1-5]	0.674		
GGCKHPYLPVASHHFCRG (peptide, not shown: large carriers; small tags and cut ends) [C4-302mat-3-1-10]	0.703		
GGCMHPFLPVTSHHFCGG (peptide, not shown: large carriers; small tags and cut ends) [C4-302mat-2-1-3]	0.826		
GGCKHPFLPVVSHHFCGG (peptide, not shown: large carriers; small tags and cut ends) [C4-302mat-3-100-9]	0.832		
GGCLHPFLPLVSHHFCGG (peptide, not shown: large carriers; small tags and cut ends) [C4-302mat-2-1-38]	0.867		

Binder	EC50 [2] [µM]	ELISA S/N(SA) [6]	also measured
GGCVHPFLPVVSHHFCRG (peptide, not shown: large carriers; small tags and cut ends) [C4-302mat-3-100-20]	0.889		
GGCMHPFLPVVSHHFCGG (peptide, not shown: large carriers; small tags and cut ends) [C4-302mat-1-1-24]	1.03		
GGCMHPFLRVVSHHFCGG (peptide, not shown: large carriers; small tags and cut ends) [C4-302mat-1-1-37]	1.49		
GGCMHPYLPVISHHFCGG (peptide, not shown: large carriers; small tags and cut ends) [C4-302mat-2-1-27]	1.64		
GGCMHPFLQVVSHHFCGG (peptide, not shown: large carriers; small tags and cut ends) [C4-302mat-2-100-4]	4.18		
{Biotin-PEG4′}-KCMHPFLLVVSHHFC (disulfide 2-15) [biotinylated H12SSI-Ctla4-3-02: Biotin-PEG4-…]			Kd [4]: 0.191 µM; koff [4]: 0.022 s⁻¹; kon [4]: 115000 M⁻¹ s⁻¹
{Biotin-PEG4}-KCMHPFLPIVSHHFCER (disulfide 2-15) [biotinylated clone #19: Biotin-PEG4-…]			fold higher affinity than the original clone (H12SSI-Ctla4-3-02) [5]: 3 fold; Kd [4]: 0.0618 µM; koff [4]: 0.0128 s⁻¹; kon [4]: 208000 M⁻¹ s⁻¹
GGCSHPYLPIHSRHFCLS (peptide, not shown: large carriers; small tags and cut ends) [C4m3127-4th-NNS6-70]		4.6	
GGCLHPWLPIVSCHFCPR (peptide, not shown: large carriers; small tags and cut ends) [C4m#19-5th2w-NNS6-68]		4.6	
GGCLHPYLPIFSVHFCAL (peptide, not shown: large carriers; small tags and cut ends) [C4m#19-5th2w-NNS6-87]		4.5	
GGCRHPFLPIFSVHFCPF (peptide, not shown: large carriers; small tags and cut ends) [C4m#19-5th2w-NNS6-66]		4.4	
GGCLHPFLPILSLHFCPF (peptide, not shown: large carriers; small tags and cut ends) [C4m3127-4th-NNS6-20]		4.4	
GGCCHPWLPIRSVHFCPF (peptide, not shown: large carriers; small tags and cut ends) [C4m#19-5th2w-NNS6-61]		4.3	
GGCMHPSLPIWSWHFCPH (peptide, not shown: large carriers; small tags and cut ends) [C4m3127-4th-NNS6-19]		4.1	
GGCFHPFLPIRSHHFCML (peptide, not shown: large carriers; small tags and cut ends) [C4m#19-5th4w-NN6-40]		4	
GGCMHPYLPIRSFHFCSC (peptide, not shown: large carriers; small tags and cut ends) [C4m#19-5th4w-NN6-49]		4	
GGCRHPFLPIFSWHFCAV (peptide, not shown: large carriers; small tags and cut ends) [C4m#19-5th4w-NN6-80]		3.8	
GGCLHPFLPIVSWHFCPC (peptide, not shown: large carriers; small tags and cut ends) [C4m#19-5th2w-NNS6-80]		3.6	
GGCWHPVLPIRSIHFCGC (peptide, not shown: large carriers; small tags and cut ends) [C4m3127-4th-NNS6-37]		3.5	
GGCFHPFLPIQSRHFCCR (peptide, not shown: large carriers; small tags and cut ends) [C4m#19-5th2w-NNS6-93]		3.4	
GGCWHPVLPIRSGHFCSR (peptide, not shown: large carriers; small tags and cut ends) [C4m3127-4th-NNS6-95]		3.4	
GGCWHPVLPIRSDHFCCR (peptide, not shown: large carriers; small tags and cut ends) [C4m#19-5th2w-NNS6-41]		3.1	
